{"source": "paper PMC7195446", "about": "“The RhHB1/RhLOX4 module affects the dehydration tolerance of rose flowers (Rosa hybrida) by fine-tuning jasmonic acid levels”", "binders": {"B1": {"name": "RhLOX4 promoter probe (-1270 to -1303) (dsDNA)", "DNA 1": "AAGAGAATATTTTGAAATAATATTAGGAGTCTCT", "DNA 2": "AGAGACTCCTAATATTATTTCAAAATATTCTCTT"}}, "target": "GST-RhHB1 (Rosa hybrida, UniProt A0A096YDU1 1-243)", "sequence (A0A096YDU1 entry or part of it)": "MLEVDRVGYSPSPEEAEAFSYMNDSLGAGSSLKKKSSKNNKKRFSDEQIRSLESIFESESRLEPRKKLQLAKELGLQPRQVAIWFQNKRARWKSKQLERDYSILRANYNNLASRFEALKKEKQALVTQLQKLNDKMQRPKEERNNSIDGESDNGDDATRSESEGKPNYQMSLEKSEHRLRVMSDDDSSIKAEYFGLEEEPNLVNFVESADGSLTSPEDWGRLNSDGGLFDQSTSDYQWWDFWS", "test": "EMSA; 25 pM probe (so in the source), 3 ug protein; signal weakened by 10x and 100x unlabeled probe; Pierce EMSA kit, per manufacturer's instructions; buffer, salt, pH and temperature not given", "conditions": "protein: recombinant; tags: GST (N-terminal, pGEX-2T); chain copies: 2; label: biotin (5' of S3); blunt", "data": [{"binder": "B1", "values": [{"measurement": "binding result", "result": "binds"}]}]}
